Experiment [1] deals with huPD-L1-Fc (R&D Systems) (human) (UniProt Q9NZQ7). The experiment can be described thus: competition ELISA: hu CD80-Fc coated, 1.6 nM huPD-L1-Fc preincubated with the antibody.
The target is the same in experiment [2]. The experiment can be described thus: competition ELISA: hu PD-1-Fc coated, huPD-L1-Fc preincubated with the antibody. For orientation: ELISA stands for enzyme-linked immunosorbent assay.
Experiment [3] has the same target. The experiment can be described thus: Biacore, ligand rhPD-L1-Fc, Affimer as analyte.

huPD-L1-Fc (R&D Systems) (human), sequence (Q9NZQ7 19-239 limits assumed): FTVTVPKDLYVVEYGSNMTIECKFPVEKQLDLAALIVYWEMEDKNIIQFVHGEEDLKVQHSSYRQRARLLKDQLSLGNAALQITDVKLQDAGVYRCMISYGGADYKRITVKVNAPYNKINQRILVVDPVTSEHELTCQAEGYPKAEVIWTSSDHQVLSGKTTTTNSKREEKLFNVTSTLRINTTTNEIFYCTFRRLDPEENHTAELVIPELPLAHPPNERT

B1: mAb anti huPD-L1 29E.2A3 (Biolegend) (antibody, from another filing, V domains shown)
VH: EVQLQQSGPELVKPGASVKMSCKASGYTFTSYVMHWVKQKPGQGLEWIGYVNPFNDGTKYNEMFKGKATLTSDKSSSTAYMELSSLTSEDSAVYYCARQAWGYPWGQGTLVTVSA
VL: DIVLTQSPASLAVSLGQRATISCRATESVEYYGTSLVQWYQQKPGQPPKLLIYAASSVDSGVPARFSGSGSGTDFSLTIHPVEEDDIAMYFCQQSRRVPYTFGGGTKLEIK
Consider B1, for which the half-inhibitory concentration (IC50) (commonly the point on the concentration scale where inhibition reaches its midpoint) in experiment [1] turned out to be 0.31 nM; in experiment [2], 0.18 nM.

B2: AVA04-251 BH (designed binder, from a related filing)
chain: MIPRGLSEAKPATPEIQEIVDKVKPQLEEKTNETYGKLEAVQYKTQVLAREGRQDWVLSTNYYIKVRAGDNKYMHLKVFNGPWVPFPHQQLADRVLTGYQVDKNKDDELTGFAEAAAKEAAAKEAAAKEAAAKEAAAKEAAAKMIPRGLSEAKPATPEIQEIVDKVKPQLEEKTNETYGKLEAVQYKTQVLAREGRQDWVLSTNYYIKVRAGDNKYMHLKVFNGPWVPFPHQQLADRVLTGYQVDKNKDDELTGFHHHHHH
Turning to B2, in experiment [3], the koff (in general, a measure of how fast the partners let go of each other) amounted to 0.00129 s⁻¹ and the on-rate (kon) (usually a measure of how fast the partners come together) is 752000 M⁻¹ s⁻¹.

The record behind these values is patent US20210163599A1.
